The record followed here is PMC5457487, “Structural Basis for Mitotic Centrosome Assembly in Flies” (Cell, 2017).

B1: Cnn CM2 WT (GGS-H1082-L1148) (domain or fragment, Drosophila melanogaster)
chain: GGSHDCAKVDLENAELRRKLIRTKRAFEDTYEKLRMANKAKAQVEKDIKNQILKTHNVLRNVRSNMENEL
notes: GGS motif left at the N terminus after TEV cleavage; Centrosomin (Cnn), Drosophila, CM2 domain, aa1082-1148; The dimer holds a Zn2+ ion coordinated by H1082 and C1084; also called Cnn-motif 2 domain; Cnn_(1082-1148); source: E. coli C41 (DE3), purified (Ni-NTA, TEV cleavage, SEC); not shown: His-tagged lipoyl domain (Bacillus stearothermophilus dihydrolipoamide acetyltransferase), N-terminal, …
B2: CM2-L1137E (domain or fragment, Drosophila melanogaster)
chain: B1 chain with L59E
notes: GGS motif left after TEV cleavage, as told for the WT CM2 construct of the same vector; Centrosomin (Cnn), Drosophila, CM2 domain, aa1082-1148, L1137E; also called CM2 (aa1082-1148 L1137E); source: E. coli C41 (DE3), purified; not shown: His-tagged lipoyl domain (Bacillus stearothermophilus dihydrolipoamide acetyltransferase), N-terminal, cleaved
B3: CM2-I1126E (domain or fragment, Drosophila melanogaster)
chain: B1 chain with I48E
notes: GGS motif left after TEV cleavage, as told for the WT CM2 construct of the same vector; Centrosomin (Cnn), Drosophila, CM2 domain, aa1082-1148, I1126E; also called CM2 (aa1082-1148 I1126E); source: E. coli C41 (DE3), purified; not shown: His-tagged lipoyl domain (Bacillus stearothermophilus dihydrolipoamide acetyltransferase), N-terminal, cleaved
B4: CM2-T1133E (domain or fragment, Drosophila melanogaster)
chain: B1 chain with T55E
notes: GGS motif left after TEV cleavage, as told for the WT CM2 construct of the same vector; Centrosomin (Cnn), Drosophila, CM2 domain, aa1082-1148, T1133E; also called CM2 (aa1082-1148 T1133E); source: E. coli C41 (DE3), purified; not shown: His-tagged lipoyl domain (Bacillus stearothermophilus dihydrolipoamide acetyltransferase), N-terminal, cleaved
B5: Cnn LZ (GPM-D490-L552) (domain or fragment, Drosophila melanogaster)
chain: GPMDQQNSAVIGQLRLELQQARTEVETADKWRLECVDVCSVLTNRLEELAGFLNSLLKHKDVLGVL
notes: source: E. coli, purified as complex with CM2; not shown: His6, N-terminal, cleaved; MBP, N-terminal, cleaved
B6: Cnn LZ WT (GPM-D490-K544) (domain or fragment, Drosophila melanogaster)
chain: GPMDQQNSAVIGQLRLELQQARTEVETADKWRLECVDVCSVLTNRLEELAGFLNSLLK
notes: Centrosomin (Cnn), Drosophila, LZ domain, aa490-544; Homo-tetramer alone in solution; a parallel homo-dimer in the 2:2 complex with CM2; also called LZ domain; leucine zipper; source: E. coli B834 (DE3), purified (Ni-NTA, SEC; tag cleaved with GST-3C protease, reverse Ni-NTA, SEC); not shown: His6, N-terminal, cleaved; MBP, N-terminal, cleaved
B7: LZ-L535E (domain or fragment, Drosophila melanogaster)
chain: B6 chain with L49E
notes: N-terminal residues as printed for the WT LZ construct of the same vector; Centrosomin (Cnn), Drosophila, LZ domain, aa490-544, L535E; also called LZ (aa490-544 L535E); Cnn_(490-544) L535E; source: E. coli B834 (DE3), purified; not shown: His6, N-terminal, cleaved; MBP, N-terminal, cleaved
B8: MBP-PReM (domain or fragment, Drosophila melanogaster, UniProt P54623-2 403-608, looked up)
chain: QLQTEVKKKTANLQNLVNKELWEKNREVERLTKLLANQQKTLPQISEESAGEADLQQSFTEAEYMRALERNKLLQRKVDVLFQRLADDQQNSAVIGQLRLELQQARTEVETADKWRLECVDVCSVLTNRLEELAGFLNSLLKHKDVLGVLAADRRNAMRKAVDRSLDLSKSLNMTLNITATSLADQSLAQLCNLSEILYTEGDASH
notes: Centrosomin (Cnn), Drosophila, phospho-regulated multimerization (PReM) domain, aa403-608; also called MBP-PReM fusion; Cnn-PReM (aa403-608); source: E. coli B834 (DE3), purified (Ni-NTA, SEC); not shown: MBP, N-terminal, kept

Data set [1] deals with the molecule itself. Nature of the data set: SEC-MALS; S75 10/300 column; 50 mM Tris-HCl pH7.5, 150 mM NaCl, 10 μM ZnCl2, 5 mM β-mercaptoethanol; proteins alone or mixed. For orientation: In gel filtration, larger molecules generally elute earlier.
Data set [2] has as its target B1. Kind of data set: crystal structure; LZ:CM2 complexes of various LZ lengths and LZ-L535E:CM2; sitting drops, 21°C. To be noted: both partners purified.
Data set [3] addresses B1. Kind of data set: SEC-MALS; S75 10/300 column; 50 mM Tris-HCl pH7.5, 150 mM NaCl, 10 μM ZnCl2, 5 mM β-mercaptoethanol; proteins alone or mixed. To be noted: both partners purified.
Data set [4] concerns the molecule itself. Nature of the data set: SEC-MALS; Superose 6 column; MBP-PReM apo or with addition of CM2 WT or point mutants; 50 mM Tris-HCl pH7.5, 150 mM NaCl, 10 μM ZnCl2, 5 mM β-mercaptoethanol.

Residue numbers refer to the chain shown, from its start. In names and notes the source's numbering stands.

By stoichiometry N is commonly meant the number of molecules, sites or subunits per partner or assembly. With B1, the “stoichiometry N” value in data set [1] was found to be 2.
In the case of B2, the “stoichiometry N” value in data set [1] worked out at 2.
The same measure, in the same setting: as for B3, the figure is 2.
As to B4, the “stoichiometry N” value in data set [1] turned out to be 2.
Consider B5, for which, in data set [2], the binding result is listed as “binds”.
Turning to B6, the “stoichiometry N” value is 1 LZ per CM2 (printed as 2:2) in data set [3] and 4 in data set [1].
In the case of B7, the “stoichiometry N” value in data set [3] was 1 LZ per CM2 (printed as 2:2).
Consider B8, for which the “stoichiometry N” value in data set [4] amounted to 2.
